Data from paper PMC4587554.

Molecular target: Pf12 (His26 to Ser321) (Plasmodium falciparum) (UniProt C6KSX0)
Experiment: ITC; Pf12 10 μM in the sample cell; full length Pf41 or Pf41ΔID 100 μM added in 16 injections of 2.4 μL, 180 s apart; 25°C; one-site model; single experiment representative of two

In the case of “Pf41 full length (mature, Lys21 to Ser378) (from UniProt Q8I1Y0 21-378) (natural protein)”, the Kd is reported as 27.7 nM, the dH is reported as -33.9 kcal/mol and the stoichiometry N is reported as 0.85 Pf41:Pf12.
